Columns and labels:
[1] = biological target: XRCC1pSpT-18 (unlabelled, NMR samples) none (pSer518; pThr519) (UniProt P18887); assay: 1H,15N-HSQC titration with 1H lineshape simulation (500 MHz); conditions: pH 7.4, 35°C, 150 mM NaCl, 25 mM HEPES, 25 mM MES
[2] = biological target: XRCC1pSpT-9 none (pSer518; pThr519) (UniProt P18887); assay: 1D 31P NMR pH titration of the free phosphopeptide (600 MHz); conditions: pH 4.0-8.5, 35°C, no added NaCl (50 mM sodium acetate, 50 mM sodium cacodylate)
[3] = biological target: XRCC4pSpT-12 none (pSer232; pThr233) (UniProt Q13426); assay: as above; conditions: pH 4.0-8.5, 35°C, no added NaCl (50 mM sodium acetate, 50 mM sodium cacodylate)
[4] = biological target: XRCC1 tetraphosphorylated peptide (Homo sapiens) (UniProt P18887); conditions: cited from earlier work
[5] = biological target: XRCC1 (Homo sapiens) (UniProt P18887); assay: fluorescence; conditions: cited from earlier work
Sequence of XRCC1 (Homo sapiens) (P18887 whole entry): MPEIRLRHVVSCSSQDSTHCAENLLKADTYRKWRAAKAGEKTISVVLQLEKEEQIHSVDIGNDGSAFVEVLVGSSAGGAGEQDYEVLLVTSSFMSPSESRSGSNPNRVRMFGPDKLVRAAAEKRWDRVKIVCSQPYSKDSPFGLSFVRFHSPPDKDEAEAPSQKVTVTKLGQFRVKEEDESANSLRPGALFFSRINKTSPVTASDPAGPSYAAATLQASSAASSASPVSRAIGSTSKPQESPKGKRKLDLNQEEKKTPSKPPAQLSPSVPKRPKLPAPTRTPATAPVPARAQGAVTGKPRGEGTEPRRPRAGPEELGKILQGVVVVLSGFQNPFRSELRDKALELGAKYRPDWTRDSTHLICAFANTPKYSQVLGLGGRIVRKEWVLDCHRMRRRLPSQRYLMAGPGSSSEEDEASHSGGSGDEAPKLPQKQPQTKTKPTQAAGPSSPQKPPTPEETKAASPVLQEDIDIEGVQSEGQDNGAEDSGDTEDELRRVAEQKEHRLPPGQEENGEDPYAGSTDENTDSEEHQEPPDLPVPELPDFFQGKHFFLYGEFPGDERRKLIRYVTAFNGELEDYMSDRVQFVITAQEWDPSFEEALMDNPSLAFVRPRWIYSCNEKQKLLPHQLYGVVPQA

Sequence of XRCC4pSpT-12 none (pSer232; pThr233) (Q13426 whole entry): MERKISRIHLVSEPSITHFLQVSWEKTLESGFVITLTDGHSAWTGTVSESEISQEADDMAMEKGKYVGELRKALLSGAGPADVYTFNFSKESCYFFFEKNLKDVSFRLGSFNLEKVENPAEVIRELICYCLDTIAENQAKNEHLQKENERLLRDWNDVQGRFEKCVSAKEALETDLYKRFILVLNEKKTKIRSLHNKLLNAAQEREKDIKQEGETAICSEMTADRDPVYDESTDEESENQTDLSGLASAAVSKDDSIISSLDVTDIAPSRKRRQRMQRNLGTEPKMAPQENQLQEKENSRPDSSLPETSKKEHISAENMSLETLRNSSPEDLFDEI
Sequence of XRCC1pSpT-9 none (pSer518; pThr519) (P18887 whole entry): as the sequence (P18887 whole entry) above
Sequence of XRCC1pSpT-18 (unlabelled, NMR samples) none (pSer518; pThr519) (P18887 whole entry): as the sequence (P18887 whole entry) above
Sequence of XRCC1 tetraphosphorylated peptide (Homo sapiens) (P18887 whole entry): as above

## U-[15N] APLF FHA domain
[1]
  τB (lifetime of the protein-peptide complex): 0.9 ms

## APLF FHA domain
[2]
  pK, pSer518 phosphate of XRCC1pSpT-9: 6.56 pH units
  pK, pThr519 phosphate of XRCC1pSpT-9: 6.86 pH units
[3]
  pK, pSer232 phosphate of XRCC4pSpT-12: 6.9 pH units
  pK, pThr233 phosphate of XRCC4pSpT-12: 7.22 pH units

## PNKP FHA (from UniProt Q96T60)
[4]
  Kd: 140 nM
[5]
  Kd: 3.5 nM

Source: paper PMC5716189, “Characterization of the APLF FHA–XRCC1 phosphopeptide interaction and its structural and functional implications” (Nucleic Acids Research, 2017)
